In article PMC3119452 (Structure (London, England : 1993), 2010):
Several values for one entry are separate records, joined by “and”; a condition that tells them apart may be missing. Equal entries are not always repeated. Where two headings read alike, the source gives them in different places. Values belong to the molecule of their own block, whether it stands above or below them.

Columns and labels:
[1] = target: full-length HYL1 (Arabidopsis HYPONASTIC LEAVES1) (Arabidopsis) (UniProt O04492); test: SEC
[2] = target: full-length HYL1 (Arabidopsis HYPONASTIC LEAVES1) (Arabidopsis) (UniProt O04492); test: SEC; remark: listed apart in the source
GST-HYL1 fusion protein = target: T1, GST-HYL1 fusion protein (Arabidopsis, UniProt O04492 1-419); test: pull-down
T1 sequence (looked up): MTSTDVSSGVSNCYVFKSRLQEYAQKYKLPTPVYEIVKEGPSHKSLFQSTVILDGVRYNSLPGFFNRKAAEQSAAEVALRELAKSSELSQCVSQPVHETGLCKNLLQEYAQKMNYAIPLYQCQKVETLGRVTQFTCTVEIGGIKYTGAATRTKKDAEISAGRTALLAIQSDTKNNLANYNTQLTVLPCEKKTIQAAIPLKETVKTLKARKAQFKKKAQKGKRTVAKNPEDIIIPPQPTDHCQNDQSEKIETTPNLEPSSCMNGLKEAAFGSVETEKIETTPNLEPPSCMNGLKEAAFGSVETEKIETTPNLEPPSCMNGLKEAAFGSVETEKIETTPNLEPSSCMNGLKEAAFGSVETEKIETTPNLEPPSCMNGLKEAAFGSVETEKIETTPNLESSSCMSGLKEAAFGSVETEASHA

crystal structure = target: the molecule itself; test: crystal structure

B1: HYL1 dsRBD1+2 (HR1+2; residues 15-172) (domain or fragment, Arabidopsis, UniProt O04492 15-172, looked up)
chain: VFKSRLQEYAQKYKLPTPVYEIVKEGPSHKSLFQSTVILDGVRYNSLPGFFNRKAAEQSAAEVALRELAKSSELSQCVSQPVHETGLCKNLLQEYAQKMNYAIPLYQCQKVETLGRVTQFTCTVEIGGIKYTGAATRTKKDAEISAGRTALLAIQSDT
binding result (GST-HYL1 fusion protein): binds

B3: HYL1 dsRBD2 (HR2; residues 100-172) (domain or fragment, Arabidopsis, UniProt O04492 100-172, looked up)
chain: GLCKNLLQEYAQKMNYAIPLYQCQKVETLGRVTQFTCTVEIGGIKYTGAATRTKKDAEISAGRTALLAIQSDT
binding result (crystal structure): binds

More lines, now with the values ahead:

percent of the monomer peak shifted to the 110 kDa peak [1]: 90%
stoichiometry N [1]: 2
stoichiometry N [2]: 8 and 10
Molecule: full-length HYL1 (Arabidopsis HYPONASTIC LEAVES1) (from UniProt O04492 1-419) (natural protein)

binding result (GST-HYL1 fusion protein): binds
B2: HR2 (residues 101-171) used in the pull-down (domain or fragment, Arabidopsis, UniProt O04492 101-171, looked up)
chain: LCKNLLQEYAQKMNYAIPLYQCQKVETLGRVTQFTCTVEIGGIKYTGAATRTKKDAEISAGRTALLAIQSD
